From publication PMC4168798

Legend:
Test in all cases: fluorescence polarisation
[1] = molecular target: Bfl-1 (c-myc-tagged, without the C-terminal trans-membrane region) (human)
[2] = molecular target: Bcl-xL (c-myc-tagged, without the C-terminal trans-membrane region) (human)
[3] = molecular target: Mcl-1 (c-myc-tagged, without the N-terminal domain and the C-terminal trans-membrane region) (human)
[4] = molecular target: Bcl-2 (c-myc-tagged, without the C-terminal trans-membrane region) (human)
[5] = molecular target: Bcl-w (c-myc-tagged, without the C-terminal trans-membrane region) (human)
Sequence of Bcl-w (c-myc-tagged, without the C-terminal trans-membrane region) (human) (Q92843 1-164): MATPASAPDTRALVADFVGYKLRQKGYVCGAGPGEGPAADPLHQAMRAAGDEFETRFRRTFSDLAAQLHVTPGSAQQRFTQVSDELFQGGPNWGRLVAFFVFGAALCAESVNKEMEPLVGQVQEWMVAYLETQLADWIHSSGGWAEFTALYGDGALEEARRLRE

Row | Substance | Kd [1] | Kd [2] | Kd [3] | Kd [4] | Kd [5]
1 | Bim 23-mer, N-terminal fluorescein (peptide) | < 1 nM | 2.6 nM | < 1 nM | – | –
2 | Bim_A2eT, N-terminal fluorescein (peptide) | 31 nM | 17 nM | < 1 nM | 43 nM | –
3 | Bim_A2eT, N-terminal fluorescein (peptide; other documents disagree on this pair) | – | – | – | – | 39 nM
4 | Bim_A2eT_E2gG, N-terminal fluorescein (peptide) | – | 37 nM | 1.6 nM | 150 nM | –
5 | Bim_A2eT_E2gG, N-terminal fluorescein (peptide; other documents disagree on this pair) | – | – | – | – | 94 nM
6 | Bim_A2eT_F4aI, N-terminal fluorescein (peptide) | 7.9 nM | 110 nM | < 1 nM | 150 nM | –
7 | Bim_A2eT_F4aI, N-terminal fluorescein (peptide; other documents disagree on this pair) | – | – | – | – | 16 nM
8 | Bim_A2eT_I2dM, N-terminal fluorescein (peptide) | 150 nM | 83 nM | < 1 nM | 210 nM | –
9 | Bim_A2eT_I2dM, N-terminal fluorescein (peptide; other documents disagree on this pair) | – | – | – | – | 260 nM
10 | Bim_A2eT_I3dL, N-terminal fluorescein (peptide) | 120 nM | 7.6 nM | < 1 nM | 37 nM | –
11 | Bim_A2eT_I3dL, N-terminal fluorescein (peptide; other documents disagree on this pair) | – | – | – | – | 12 nM
